{
  "source": "patent US20030167486",
  "proteins": {"B1": {"name": "human BACE (protein)", "chain": "ETDEEPEEPGRRGSFVEMVDNLRGKSGQGYYVEMTVGSPPQTLNILVDTGSSNFAVGAAPHPFLHRYYQRQLSSTYRDLRKGVYEPYTQGKWEGELGTDLVSIPHGPNVTVRANIAAITESDKFFINGSNWEGILGLAYAEIARPDDSLEPFFDSLVKQTHVPNLFSLQLCGAGFPLNQSEVLASVGGSMIIGGIDHSLYTGSLWYTPIRREWYYEVIIVRVEINGQDLKMDCKEYNYDKSIVDSGTTNLRLPKKVFEAAVKSIKAASSTEKFPDGFWLGEQLVCWQAGTTPWNIFPVISLYLMGEVTNQSFRITILPQQYLRPVEDVATSQDDCYKFAISQSSTGTVMGAVIMEGFYVVFDRARKRIGFAVSACHVHDEFRTAAVEGPFVTLDMEDCGYNIPQTDESTLMTIAYVMAAICALFMLPLCLMVCQWRCLRCLRQQHDDFADDISLLK"}},
  "target": "human APP London (V717F), P05067",
  "data": [
    {"protein": "B1", "values": [
      {"measurement": "12 kD beta-secretase fragment of APP on Western blot of brain homogenate", "result": "the 12 kD beta-secretase fragment of APP is strongly increased due to expression of transgenic beta-secretase"},
      {"measurement": "sAPP alpha and sAPP beta fragments in supernatants of organotypic cerebellar slice cultures (ELISA)", "result": "the over-expression of beta-secretase in APP London single transgenic mice induces a preferential cleavage of APPV717F at the beta cut as demonstrated by the lack of sAPPalpha fragment detection and the increase of sAPPbeta"}
    ]}
  ]
}
